Here are results for three substances from publication PMC2172693.

The assay has as its target tetramethylrhodamine isothiocyanate-labeled actin (UniProt P68139). Description: optical trap.

“heterodimeric heavy meromyosin with one wild-type head and one E470A head (from UniProt P10587;P02607) (complex)” yielded a step duration (τon) of 106 ms. As for “single-headed subfragment-1 with neonatal epitope tag at its COOH terminus (from UniProt P10587;P02607) (complex)”, the figure is 189 ms; as for “wild-type smooth muscle heavy meromyosin (from UniProt P10587;P02607) (complex)”, 104 ms.
